Experimental data published in patent US20220033501A1 (SHANGHAI PHARMAEXPLORER, published 2022).
Changes are numbered by the printed parent chain.

T1: monkey TIM-3 protein with hFc tag (cTIM-3-hFc protein) (monkey; human)
T1 construct: Made in HEK293 cells; also called monkey TIM-3 extracellular domain protein; not shown: human IgG Fc fragment (hFc) of the pCpC vector
T1 chain: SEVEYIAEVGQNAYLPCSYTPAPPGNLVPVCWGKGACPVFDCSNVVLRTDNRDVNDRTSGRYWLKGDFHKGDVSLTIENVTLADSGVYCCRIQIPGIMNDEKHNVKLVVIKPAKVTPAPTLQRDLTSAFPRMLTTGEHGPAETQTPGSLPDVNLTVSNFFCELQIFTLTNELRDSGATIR

T2: murine TIM-3 protein with hFc tag (mTIM-3-hFc protein) (mouse; human, UniProt Q8VIM0 29-191)
T2 construct: Made in HEK293 cells; also called mouse TIM-3 extracellular domain protein; not shown: human IgG Fc fragment (hFc) of the pCpC vector
T2 chain: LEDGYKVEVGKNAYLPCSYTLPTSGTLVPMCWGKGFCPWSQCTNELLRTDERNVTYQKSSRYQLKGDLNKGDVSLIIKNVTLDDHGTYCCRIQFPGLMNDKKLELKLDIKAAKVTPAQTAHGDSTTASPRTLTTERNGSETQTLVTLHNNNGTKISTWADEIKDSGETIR

B1: 18D2H2 (TIM-3 antibody purified from hybridoma, chimeric antibody of Example 2) (antibody, V domains shown)
VH: EVQLVESGGDLVQPGGSLRLSCAASGFTFSTYWMTWVRQAPGRGLEWVANIKQDGSAKYYVDSVKGRFTLSRDDAKNSLYLQMNSLRAEDTAVYYCARGSNWFDYWGQGTLVTVSS
VL: ETVMTQSPATLSVSPGERATLSCRANQNVYSNLAWYQQKPGQAPRLLIYDASTRATGFPARFSGSGSGTEFTLTISSLQSEDFAVYYCQQYNNWPLTFGGGTKVEIK
notes: From hybridoma of Harbour H2L2 transgenic mice: human variable regions, rat constant regions
B2: 34B6D8 (TIM-3 antibody purified from hybridoma, chimeric antibody of Example 2) (antibody, V domains shown)
VH: B1 VH with D10G, R43K, G44R, D54G, S56G, A57D, L70I, R72T, D74N, Y105P
VL: EIVMTQSPATLSMSPGERATLSCRASQSVYDNLAWYQQKPGQAPRLLIYGASTRATGIPARFSGSGSGTEFTLTISSLQSEDFALYYCQQYTHWPITFGQGTRLEIK
notes: as for B1
B3: 57F4E5 (TIM-3 antibody purified from hybridoma, chimeric antibody of Example 2) (antibody, V domains shown)
VH: EVQLVESGGGLVQPGGSLRLSCAASGFTFSSYWMSWVRQAPGKGLEWVANIKQDGSEKYYVDSVKGRFTISRDSAKNSLYLQMNSLRAEDTAMYFCARDSNFFDYWGQGTLVTVSS
VL: B1 VL with N26S, N28S, Y30S, Q38R, D50F, A51S, F58I
notes: as for B1
B4: 39E5H1 (TIM-3 antibody purified from hybridoma, chimeric antibody of Example 2) (antibody, V domains shown)
VH: EVQLVESGGGLVQPGGSLRLSCAASGFTFSSYWMSWVRQAPGKGLEWVANIKRGGSERYYVDSVKGRFTISGDNAKNSVYLQMNSLRAEDTAVYYCARGSNWFDPWGQGTLVTVSS
VL: B2 VL with I2T, T10I, M13V, D31S, P40L, G50D, L85V, T92N, H93N
notes: as for B1
B5: 134H3G6 (TIM-3 antibody purified from hybridoma, chimeric antibody of Example 2) (antibody, V domains shown)
VH: EVQLVESGGGLVQPGGSLRLSCAASGFTFSNSWMTWVRQAPGKGLEWVANIKQAGTEKYYVDSVKGRFTISRDNAKNSLYLQMNSLRAEDTAVYYCNSGSNYFDYWGQGTLVTVSS
VL: B1 VL with T2I, N26R, V29F, D50G, F58I
notes: as for B1
B6: 215A8F2 (TIM-3 antibody purified from hybridoma, chimeric antibody of Example 2) (antibody, V domains shown)
VH: QVQLQQWGAGLLKPSETLSLTCTVYGGSFSGYYWNWIRQPPGKGLEWLGEINHSGSTNYNPSLKRRVTISVDTSKNQFSLKLSSVTAADTAVYYCARVYYYGPFDFWGQGTLVTVSS
VL: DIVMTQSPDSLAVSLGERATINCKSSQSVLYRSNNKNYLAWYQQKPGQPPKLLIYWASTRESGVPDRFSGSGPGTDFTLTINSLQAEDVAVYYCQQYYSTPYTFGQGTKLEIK
notes: as for B1
B7: 7A4F10 (TIM-3 antibody purified from hybridoma, chimeric antibody of Example 2) (antibody, V domains shown)
VH: EVQLLESGGGLVQPGGSLRLSCAASGFTFRTHLISWVRQAPGKGLEWVAAITGSGGSTYYADSVKGRFIISRDNSKNTLFLQMNSLRAEDTAVYYCAKDGGSGSYDDFWGQGTLVTVSS
VL: ETVLTQSPVTLSLSPGERATLSCRASQSVGSYLAWYQQKPGQAPRLLIYDASNRATGIPARFSGSGSGTDFTLTISSLEPEDFAVYYCQQRSNWPPTFGQGTKVEIK
notes: as for B1

Biological target: T1, monkey TIM-3 protein with hFc tag …
Test: ELISA, coated cTIM-3-hFc; antibody 0.0001 nM
From the text: (§1) The amino acid sequence 22-200 of the extracellular domain of the human TIM-3 protein described in the step of Example 1 (as shown in SEQ ID NO. 71 in the sequence listing) was cloned into a pCpC vector having a human IgG Fc fragment (hFc), and transfected into HEK293 cells. The cell culture medium was collected, and purified to obtain the human TIM-3 protein with hFc tag (herein referred to as hTIM-3-hFc protein). The amino acid sequence 22-201 of the extracellular domain of the monkey TIM-3 protein (as shown in SEQ ID NO. 72 in the sequence listing) was cloned into a pCpC vector having a human IgG Fc fragment (hFc), and transfected into HEK293 cells. The cell culture medium was collected, and purified to obtain the monkey TIM-3 protein with hFc tag (herein referred to as cTIM-3-hFc protein). […] The cell culture medium was collected, and purified to obtain the murine TIM-3 protein with hFc tag (herein referred to as mTIM-3-hFc protein). Purified human, monkey, and mouse TIM-3 extracellular domain proteins (hTIM-3-hFc, cTIM-3-hFc, and mTIM-3-hFc) were diluted with PBS to a final concentration of 1.0 μg/ml and then added to a 96-well ELISA plate with 100 μl per well. The plate was sealed with plastic film and incubated overnight at 4° C. The plate was washed 4 times with the plate washing solution (PBS+0.01% Tween20) on the next day, and added with the blocking solution (PBS+0.01% Tween20+1% BSA) and sealed at room temperature for 1-2 hours. The blocking solution was poured out. 50-100 μl of the antibody sample to be tested was added to each well. The plate was incubated at 37° C. for 1-2 hours, and washed 2-3 times with plate washing solution (PBS+0. 01% Tween20). HRP (horseradish peroxidase) labeled secondary antibody was added. The plate was incubated at 37° C. for 1-2 hours, and washed 2-3 times with plate washing solution (PBS+0. 01% Tween20). […] of TMB substrate was added to each well. After incubated at room temperature for 15-30 minutes, the plate was added with […] stop solution (1.0N HCl) to each well. An ELISA plate reader (TiterMax 384plus, Molecular Device) was used to read the A450 nm value.

OD450	Binder
0.53	B1
0.57	B2
0.58	B3
0.57	B4
0.54	B5
0.52	B6
0.54	B7

Biological target: T1, monkey TIM-3 protein with hFc tag …
Test: ELISA, coated cTIM-3-hFc; antibody 66.667 nM
From the text: as §1

OD450	Binder
3.44	B1
3.52	B2
3.47	B3
3.47	B4
3.43	B5
3.49	B6
3.46	B7

Biological target: T1, monkey TIM-3 protein with hFc tag …
Test: ELISA, coated cTIM-3-hFc; antibody 0.0067 nM
From the text: as §1

OD450	Binder
0.62	B1
0.78	B2
1.13	B3
0.85	B4
0.56	B5
0.7	B6
0.57	B7

Biological target: T2, murine TIM-3 protein with hFc tag …
Test: ELISA, coated mTIM-3-hFc; antibody 0.0007 nM
From the text: as §1

OD450	Binder
0.64	B1
0.65	B2
0.67	B3
0.63	B4
0.62	B5
0.67	B6
0.64	B7

Biological target: T2, murine TIM-3 protein with hFc tag …
Test: ELISA, coated mTIM-3-hFc; antibody 0.6667 nM
From the text: as §1

OD450	Binder
0.66	B1
0.65	B2
0.64	B3
0.66	B4
0.66	B5
0.65	B6
0.67	B7
